The text below walks through data of PMC11790868.

For one test, the target named is H3K18DTU nucleosome (UniProt P0C0S8). Put plainly: native gel or EMSA; nucleosomes 100 nM, NAD+ 0 or 150 uM, SIRT7 0-1.6 uM; 10 mM Tris-HCl, 50 mM KCl, 1 mM DTT, pH 7.5; 25 °C, 30 min; 5% TBE native gel run on ice, GelRed. (A gel shift assay detects complexes by their altered migration in electrophoresis.)
The target in a further test is H3K36MTU nucleosome (UniProt P0C0S8). Described as above.

Values joined by “and” are separate entries in the source; they are usually repeats but may differ in a detail not shown here. Equal entries are not always repeated.

For the substance “SIRT7 (wild type, full length) (from UniProt Q9NRC8 1-400) (enzyme)”, the stoichiometry N (SIRT7 per nucleosome) with H3K18DTU nucleosome was 1 and 2; with H3K36MTU nucleosome, 1 and 2.
